Results as given in patent WO2017179718A1 (dated 2017).

Target: T1, human CD64 (human, UniProt P12314 16-374)
T1 construct: also called hCD64; FcγRIA
Experiment: flow cytometry on CHO-S-hCD64 and THP-1 cells

T1 sequence (P12314 16-374 limits assumed): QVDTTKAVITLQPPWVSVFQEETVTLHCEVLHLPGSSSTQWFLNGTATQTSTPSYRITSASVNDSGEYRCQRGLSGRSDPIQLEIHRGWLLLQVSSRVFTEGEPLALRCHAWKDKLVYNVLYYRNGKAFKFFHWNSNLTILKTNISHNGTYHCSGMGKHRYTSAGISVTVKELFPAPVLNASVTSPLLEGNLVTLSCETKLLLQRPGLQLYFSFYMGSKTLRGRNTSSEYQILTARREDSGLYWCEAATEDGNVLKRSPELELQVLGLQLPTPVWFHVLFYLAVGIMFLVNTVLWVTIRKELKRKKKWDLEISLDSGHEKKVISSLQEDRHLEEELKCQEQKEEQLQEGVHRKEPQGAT

B1: m22-AF647 antibody (antibody, human IgG4, V domains shown)
VH: QVQLVESGGGVVQPGRSLRLSCSSSGFIFSDNYMYWVRQAPGKGLEWVATISDGGSYTYYPDSVKGRFTISRDNSKNTLFLQMDSLRPEDTGVYFCARGYYRYEGAMDYWGQGTPVTVSS
VL: DIQLTQSPSSLSASVGDRVTITCKSSQSVLYSSNQKNYLAWYQQKPGKAPKLLIYWASTRESGVPSRFSGSGSGTDFTFTISSLQPEDIATYYCHQYLSSWTFGQGTKLEIK
modifications: Alexa Fluor 647 label on the antibody (sites not given)
notes: kappa) fluorescently labelled with Alexa Fluor 647
  binding result: binds
